# Data reported in article PMC7658645, “Aptamer-Based Western Blot for Selective Protein Recognition”.
# B1: G1 (ssDNA)
# DNA: ATACGACTCACTATTAGGGACAAAGCTGACAACCCTTTCATAATCTAACTACATTTATGTGCTAGACTACTGACTAC
# What was measured:
# [1] = molecular target: Maltose-binding protein (Escherichia coli (strain K12), UniProt P0AEX9 27-396); assay: Western blot, SDS-denatured protein on nitrocellulose; conditions: label: 5'-Cy5.5
# [2] = molecular target: histone H4 (UniProt P62805 2-103); assay: aptamer blot; on nitrocellulose; all four histone types labeled without selectivity; Dot blot/aptamer blot: 20 mM Tris-HCl, 100 mM NaCl, 5 mM MgCl2, 0.1% BSA (pH not given), 50 nM aptamer in dot blot (membranes equilibrated at 4 C), blots 1 h af
Binder,binding result [1],binding result [2]
B1,no binding,
GAGTGTGGTTCCCGGGAGGGCGCCTACGGGTCCCGTATTCGGATTTGTGC (ssDNA) [3.13],,binds
